The subject of experiment [1] is SKOV3 cells. The experiment is described as follows: Taxol-induced apoptosis (caspase activity). It is filed as cell-based, human. Conditions: Taxol 0.5 mM, 24 h. As for the experimental part:
The ability of LPA to protect ovarian tumor cells against apoptosis when exposed to clinically-relevant levels of the chemotherapeutic agent, paclitaxel (Taxol) was investigated. SKVO3 cells were treated with 1% FBS (S), Taxol (0.5 mM), +/−anti-LPA mAbs for 24 h. […] Apoptosis was assayed by measurement of the caspase activity as recommended by the manufacturer (Promega). As anticipated, LPA protected most of the cancer cell lines tested from taxol-induced cell death. […] Moreover, the anti-LPA antibody was able to remove the protection provided by serum. Serum is estimated to contain about 5-20 mM LPA. […] Taxol-induced caspase activation was enhanced by the addition of all 3 of the anti-LPA mAbs to the culture medium.

Experiment [2] in a line: Direct ELISA on S1P-coated plates, chimeric antibody and mutants. Type of experiment: binding. Conditions: antibody 0.1 ug/ml. As for the experimental part:
Microtiter ELISA plates (Costar) were coated overnight with S1P diluted in 1 M Carbonate Buffer (pH 9.5) at 37° C. for 1 hr. Plates were washed with PBS (137 mM NaCl, 2.68 mM KCl, 10.1 mM Na2HPO4, 1.76 mM KH2PO4; pH 7.4) and blocked with PBS/BSA/Tween-20 for 1 hr at room temp or overnight at 4° C. For the primary incubation (1 hr at room temp.), a standard curve using the anti-S1P mAb and the samples to be tested for binding was built using the following set of dilutions: 0.4 μg/mL, 0.2 μg/mL, 0.1 μg/mL, 0.05 μg/mL, 0.0125 μg/mL, and 0 μg/mL, and 100 μl added to each well. Plates were washed and incubated with 100 μl per well of HRP conjugated goat anti-mouse (1:20,000 dilution) (Jackson Immuno Research) or HRP conjugated goat anti-human (H+L) diluted 1:50,000 (Jackson Immuno Research) for 1 hr at room temperature. After washing, the enzymatic reaction was detected with tetramethylbenzidine (Sigma) and stopped by adding 1 M H2SO4. The optical density (OD) was measured at 450 nm using a Thermo Multiskan EX. Raw data were transferred to GraphPad software for analysis.
The chromogenic reaction was measured and reported as Optical density (OD). The concentration of the panel of antibodies was 0.1 ug/ml. No interaction of the second antibody with S1P-coated matrix alone was detected.

Experiment [3] relates to selected human cancer cell lines. The experiment is described as follows: LPA-induced cancer cell proliferation. Type of experiment: cell-based. Conditions: LPA 0.01 mM to 10 mM, 7 human-derived and one rat-derived line, dose dependent. As for the experimental part:
LPA is a potent growth factor supporting cell survival and proliferation by stimulation of Gi, Gq and G12/13 via GPCR-receptors and activation of downstream signaling events. Cell lines were tested for their proliferative response to LPA ([…]). Cell proliferation was assayed by using the cell proliferation assay kit from Chemicon (Temecula Calif.) (Panc-1) and the Cell-Blue titer from Pierce (Caki-1). Each data point is the mean of three independent experiments. […] Even though tumor-derived cells normally have high basal levels of proliferation, LPA appears to further augment proliferation in most tumor cell lines. Anti-LPA mAbs (B7 and B58) were assessed for the ability to inhibit LPA-induced proliferation in selected human cancer cell lines.

For experiment [4], the system named is Caki-1 cells. The experiment is described as follows: In vitro IL-8 production, Caki-1. Type of experiment: cell-based, human. The following applies: 18:1 LPA 0.2 mM, 24 h, cells without mAb. The method, then: Three anti-LPA mAbs (B3, B7 and B58) were tested for their abilities to reduce in vitro IL-8 production compared to a non-specific antibody (NS). Caki-1 cells were seeded in 96 well plates and grown to confluency. After overnight serum starvation, cells were treated with 18:1 LPA (0.2 mM) with or without anti-LPA mAb B3, B7, B58 or NS (Non-Specific). After 24 h, cultured supernatants of renal cancer cells (Caki-1), treated with or without LPA and in presence of increasing concentrations of the anti-LPA mAbs B3, B7 and B58, were collected and analyzed for IL-8 levels using a commercially available ELISA kit (Human Quantikine Kit, R&D Systems, Minneapolis, Minn.). […] Similar results were obtained with the other well-known pro-angiogenic factor, VEGF. The inhibition of IL-8 release by the anti-LPA mAbs was also observed in other cancerous cell lines such as the pancreatic cell line Panc-1.

Experiment [5] is described as follows: ELISA with exchanged crosslinker or protein carrier in the laydown material. It is filed as binding. The text has this: For example, the normal crosslinker SMCC was exchanged for IOA in conjugating the thiolated-S1P to BSA as the laydown material in the ELISA. […] Similarly, KLH was exchanged for BSA as the protein that was complexed with thiolated-S1P as the laydown material.

Experiment [6] can be described thus: Competitive ELISA of anti-S1P mAb, competitor LPA. It is filed as binding. The method, then:
(§1) Screening of serum and cell supernatant for SIP-specific antibodies was by direct ELISA using the thiolated S1P analog described in Example 1 (i.e., compound 10) as the antigen. A standard ELISA was performed, as described below, except that 50 ul of sample (serum or cell supernatant) was diluted with an equal volume of PBS/0.1% Tween-20 (PBST) during the primary incubation. ELISAs were performed in 96-well high binding ELISA plates (Costar) coated with 0.1 μg of chemically-synthesized compound 10 conjugated to BSA in binding buffer (33.6 mM Na2CO3, 100 mM NaHCO3; pH 9.5). The thiolated-S1P-BSA was incubated at 37° C. for 1 hr. at 4° C. overnight in the ELISA plate wells. The plates were then washed four times with PBS (137 mM NaCl, 2.68 mM KCl, 10.14 mM Na2HPO4, 1.76 mM KH2PO4; pH 7.4) and blocked with PBST for 1 hr. at room temperature. For the primary incubation step, 75 uL of the sample (containing the S1P to be measured), was incubated with 25 uL of 0.1 ug/mL anti-S1P mAb diluted in PBST and added to a well of the ELISA plate. […] Optical density of the samples was determined by measurement at 450 nm using an EL-X-800 ELISA plate reader (Bio-Tech).
(§2) For cross reactivity, a competitive ELISA was performed as described above, except for the following alterations (FIG. 4). […] Biotin incorporation was determined as per kit protocol and ranged from 7 to 11 biotin molecules per antibody. […]

Experiment [7] is described as follows: Competitive ELISA of anti-S1P mAb, competitor S1P. It is filed as binding. The method, then: as §1, §2
For orientation: In an ELISA, binding on a coated surface is turned into a signal by an enzyme label.

Experiment [8] is described as follows: Competitive ELISA of anti-S1P mAb, competitor C1P. Type of experiment: binding. As for the experimental part:
as §1, §2

The nature of experiment [9]: Competitive ELISA of anti-S1P mAb, competitor SPC. Type of experiment: binding. The method, then:
as §1, §2

Experiment [10] in a line: Competitive ELISA of anti-S1P mAb, competitor DH-S1P. It is filed as binding. As for the experimental part:
as §1, §2

The values that follow come from US9274129B2, “Methods and reagents for detecting bioactive lipids” (Lpath, Inc., priority 2006, dated 2016).

Entries after “also recorded” stand apart in the source; their conditions may differ.

On to `CC(=O)O[C@H]1C(=O)[C@@]2(C)[C@H]([C@H](OC(=O)c3ccccc3)[C@]3(O)C[C@H](OC(=O)[C@H](O)[C@@H](NC(=O)c4ccccc4)c4ccccc4)C(C)=C1C3(C)C)[C@]1(OC(C)=O)CO[C@@H]1C[C@@H]2O` [Taxol, paclitaxel], for which, in experiment [1], the “caspase-3,7 activation” value was “induced caspase-3,7 activation”.

CysPhe returned a Binding in experiment [2] of 2 OD.

As for MetLeu, the Binding in experiment [2] was found to be 1.6 OD.

In the case of lysophosphatidic acid [LPA], the “proliferation of tumor cell lines” value in experiment [3] is “increased proliferation”. Further, the “increase of IL-8 expression” value in [4] is reported as 100%.

B1: anti-S1P mAb: murine monoclonal antibody directed against S1P from hybridoma clone 306D326.26 (ATCC SD-5362) (antibody, listed as Mus musculus, V domains shown)
VH: QAHLQQSDAELVKPGASVKISCKVSGFIFIDHTIHWMKQRPEQGLEWIGCISPRHDITKYNEMFRGKATLTADKSSTTAYIQVNSLTFEDSAVYFCARGGFYGSTIWFDFWGQGTTLTVS
VL: ETTVTQSPASLSMAIGEKVTIRCITTTDIDDDMNWFQQKPGEPPNLLISEGNILRPGVPSRFSSSGYGTDFLFTIENMLSEDVADYYCLQSDNLPFTFGSGTKLEIK
For the molecule B1, in experiment [5] (laydown thiolated-S1P complexed with protein), the “binding characteristics with KLH exchanged for BSA as carrier” value is listed as “no significant difference”. Also, the “binding characteristics with IOA instead of SMCC as crosslinker” value in experiment [5] (laydown thiolated-S1P conjugated to BSA, compared with BSA-SMCC-thiolated-S1P) is given as “nearly identical”. For the same molecule, in experiment [6], the “antibody binding to LPA” value is listed as “no binding”. In experiment [7], the “competition by free S1P for mAb binding to S1P on the plate” value was “can compete for binding” and the “distinction of thiolated-S1P analog (compound 10) from natural S1P” value is on record as “unable to distinguish”. For the same molecule, in experiment [8], the “antibody binding to C1P” value is given as “no antibody binding was observed”. Besides, the “competition by SPC for mAb binding to S1P on the plate” value in experiment [9] is reported as “somewhat reduced; also recorded: only slightly competes for binding”. In addition, the “competition by free DH-S1P for mAb binding to S1P on the plate” value in experiment [10] was “can compete for binding”.
